In one assay the target is T1, human CD3ε (human, UniProt P07766 22-207).
T1 construct: On T cells CD3ε is part of the TCR-CD3 complex; also called T cells
The experiment in a line: FACS on T cells.

The next assay addresses HER2 (human, UniProt P04626 23-1255). Description: cell-based or functional assay.

B1: CD3ε(1-27)-MMP-2cs-aCD3-aHER2-BiFc (bispecific antibody)
chain 1: not shown
chain 2: QDGNEEMGGITQTPYKVSISGTTVILTGPLGIAGQAAAEPKSSDKTHTCPPCPAPEAAGGPSVFLFPPKPKDTLMISRTPEVTCVVVDVSHEDPEVKFNWYVDGVEVHNAKTKPREEQYNSTYRVVSVLTVLHQDWLNGKEYKCKVSNKALPAPIEKTISKAKGQPREPQVYTLPPSREEMTKNQVSLTCLVKGFYPSDIAVEWESNGQPENNYDTTPPVLDSDGSFFLYSDLTVDKSRWQQGNVFSCSVMHEALHNHYTQKSLSLSPGK
notes: Tested undigested, with the MMP2 cleavage site intact; also called CD3ε(1-27)-MMP-cs-aCD3-aHER2-BiFc
For the molecule B1, the binding result with human CD3ε is reported as “no binding”.

B2: CD3ε(1-27)-MMP-2csV1-aCD3-aHER2-Xbody (bispecific antibody)
chain 1: not shown
chain 2: QDGNEEMGGITQTPYKVSISGTTVILTGGGGSGGGGSGGGGSGPLGIAGQEVQLVESGGGLVQPGGSLKLSCAASGFTFNSYAMNWVRQAPGKGLEWVARIRSKYNNYATYYADSVKGRFTISRDDSKNTAYLQMNNLKTEDTAVYYCVRHGNFGNSYVSWWAYWGQGTLVTVSSGGGGSGGGGSELVMTQTPSSLSASLGDRVTISCRASQDISNYLNWYQQKPDGTVKLLIYYTSRLHSGVPSRFSGSGSGTDYSLTISNLEQEDIATYFCQQGNTLPLTFGAGTKLEIKASTKGPSVFPLAPCSRSTSESTAALGCLVKDYFPEPVTVSWNSGALTSGVHTFPAVLQSSGLYSLSSVVTVPSSNFGTQTYTCNVDHKPSNTKVDKTVGGGGSAAAEPKSSDKTHTCPPCPAPEAAGGPSVFLFPPKPKDTLMISRTPEVTCVVVDVSHEDPEVKFNWYVDGVEVHNAKTKPREEQYNSTYRVVSVLTVLHQDWLNGKEYKCKVSNKALPAPIEKTISKAKGQPREPQVYTLPPSREEMTKNQVSLTCLVKGFYPSDIAVEWESNGQPENNYDTTPPVLDSDGSFFLYSDLTVDKSRWQQGNVFSCSVMHEALHNHYTQKSLSLSPGK
With B2, the “EC50 Cytolysis (ng/mL), -MMP2; TDCC of SKOV-3 cells with pan T cells” value with HER2 was 4.41 ng/mL.

B3: CD3ε(1-27)-MMP-2csV1-aCD3-aHER2-Xbody, digested with MMP-2 (bispecific antibody)
chain 1: not shown
chain 2: IAGQEVQLVESGGGLVQPGGSLKLSCAASGFTFNSYAMNWVRQAPGKGLEWVARIRSKYNNYATYYADSVKGRFTISRDDSKNTAYLQMNNLKTEDTAVYYCVRHGNFGNSYVSWWAYWGQGTLVTVSSGGGGSGGGGSELVMTQTPSSLSASLGDRVTISCRASQDISNYLNWYQQKPDGTVKLLIYYTSRLHSGVPSRFSGSGSGTDYSLTISNLEQEDIATYFCQQGNTLPLTFGAGTKLEIKASTKGPSVFPLAPCSRSTSESTAALGCLVKDYFPEPVTVSWNSGALTSGVHTFPAVLQSSGLYSLSSVVTVPSSNFGTQTYTCNVDHKPSNTKVDKTVGGGGSAAAEPKSSDKTHTCPPCPAPEAAGGPSVFLFPPKPKDTLMISRTPEVTCVVVDVSHEDPEVKFNWYVDGVEVHNAKTKPREEQYNSTYRVVSVLTVLHQDWLNGKEYKCKVSNKALPAPIEKTISKAKGQPREPQVYTLPPSREEMTKNQVSLTCLVKGFYPSDIAVEWESNGQPENNYDTTPPVLDSDGSFFLYSDLTVDKSRWQQGNVFSCSVMHEALHNHYTQKSLSLSPGK
Regarding B3, the “EC50 Cytolysis (ng/mL), +MMP2; TDCC of SKOV-3 cells with pan T cells” value in the assay with HER2 worked out at 0.347 ng/mL.

B4: CD3ε(1-27)-aCD3-aHER2-BiFc (bispecific antibody)
chain 1: not shown
chain 2: QDGNEEMGGITQTPYKVSISGTTVILTGGGGSGGGGSGGGGSAAAEPKSSDKTHTCPPCPAPEAAGGPSVFLFPPKPKDTLMISRTPEVTCVVVDVSHEDPEVKFNWYVDGVEVHNAKTKPREEQYNSTYRVVSVLTVLHQDWLNGKEYKCKVSNKALPAPIEKTISKAKGQPREPQVYTLPPSREEMTKNQVSLTCLVKGFYPSDIAVEWESNGQPENNYDTTPPVLDSDGSFFLYSDLTVDKSRWQQGNVFSCSVMHEALHNHYTQKSLSLSPGK
notes: Non-cleavable linker between the CD3ε(1-27) fragment and the Fc
Regarding B4, the binding result with human CD3ε is “no binding”.

These data come from US20170247476A1 (Amgen, published 2017).
